This data set in a line: label from the status in PepcDB records.
On to “MQKINIDRHATAQINMLANKLMLKSSTAYTQKFGIGMTEWRIISVLSSASDCSVQKISDILGLDKAAVSRTVKKLEEKKYIEVNGHSEDKRTYAINLTEMGQELYEVASDFAIEREKQLLEEFEEAEKDQLFILLKKLRNKVDQM”, for which the protein production entry was “not failed”. In the case of “LETERNRYKWLFENAVHGIFQASLQAGMRAANPALARMLGYQDPQEVLFSLADLAGNLFVGGAGELAAIGEQLQNQRSLLGYETQLRRKDGSSIDVLMNLLLKPDQDGLVEGFVADITERKLAQQHLEQLNDQLEQR”, the protein production entry is listed as “failed”. In the case of “MTKTKFEKVLLIVNPKAGQGDLHTNLTKIVPPLAAAFPDLHILHTKEQGDATKYCQEFASKVDLIIVFGGDGTVFECTNGLAPLEIRPTLAIIPGGTCNDFSRTLGVPQNIAEAAKLITKEHVKPVDVAKANGQHFLNFWGIGLVSEVSNNIDAEEKAKLGKIGYYLSTIRTVKNAETFPVKITYDGQVYEDEAVLVMVGNGEYLGGIPSFIPNVKCDDGTLDIFVVKSTGIQAFKDYIGKKLFEDSNENDIFHVKAKSIHIETEEEKEVDTDGESSLHTPCQIELLQGHFTMIYNPAVV” it was “not failed”; in that of “MSEVKKTKVHLISGFLGTGKTTALKSLMAQKDPNEKWVIIVNEFGEIGIDGAVLSDNGIPVAEIAGGCLCCTAGPQMGVTVQKMLRDAKPDRLMIEASGLAHAASVIDELKAKPLDSLLEIGAVFTVVDPRQFINPDYAQQALYKDQIGICDVLAASKTDLCTPEQLAEFHDKAAKLFPPKAKVVEVQNAQLDIQWLDIPVVEKSRYRLKALPDNTMGFQSQGFTFPAGRDFNGEKLTNFFNDLPKMTEGLVRAKGVFQVLGTWVWLNWVDGQWGANQVSWRRDSRFELIAKSFDADLIEQKLKDALELEHHHHHH”, “not failed”; in that of “MGNHAGKRELNAEKASTNSETNRGESEKKRNLGELSRTTSEDNEVFGEADANQNNGTSSQDTAVTDSKRTADPKNAWQDAHPADPGSRPHLIRLFSRDAPGREDNTFKDRPSESDELQTIQEDSAATSESLDVMASQKRPSQRHGSKYLATASTMDHARHGFLPRHRDTGILDSIGRFFGGDRGAPKRGSGKVSSEE”, “failed”. For the sequence “MKNKSYYFLTIIRYAVYLLIGMCAVFYGELKNTEMYYFIVFFLMYIIVTQFRIYYLRNRKYVSVSMVVDLVLVCFMYSYVRNFSFLFLFISVLDSSIMLSKTQAYASGIICSVVIIIQNVKIPFSLKAGTNLINILFSILLIFTLVFIGDSFREEQKRKIEAQGLYDRLRESEEKLRGAYEKLERYSETVEELSILRERNRISREIHDSVGHTLSAVLMQLQALLYLIKSDKEESLKTVEEMTGFVRGGIENVRRTVRELKPTDFDRFEGVFAIEEMIRKYKKLTSADIRFILSKEKRSLSSDESFISYRVVQEALNNAIRHGKASLVEVSMQFNQDRLYIRIKDNGVGTDGIKKGFGMTGMEERVKKLGGNIEFYSERDKGFEVTVNLPKSSEEKNSIINY”, the protein production entry is “failed”. In the case of “MGLRDAEVRRAWAARLASWLPAPPGDVLDLGCGTGSLSLLAAEQGHRVTGVDLSPAMVELARTKLAGRDAVFLTGDAAAPPVGEQRFDAVLVRHVLWTLPDPGRALRHWRQLLRPGGRLVLVEGVWGSVSPVGIPADRVTALLGPLTGQARVERLSDDPSLWGREVADERYAVVATYGLEHHHHHH” it was “failed”; in that of “MKPICIIPARSGSKGLPDKNMLFLSGKPMIFHTIDAAIESGMFDKKDIFVSTDSELYREICLERGISVVMRKPELSTDQATSYDMLKDFLSDYEDNQEFVLLQVTSPLRKSWHIKEAMEYYSSHDVDNVVSFSEVEKHPSLFTTLSDEGYAIDMVGADKGYRRQDLQPLYYPNGAIFISNKETYLREKSFFTSRTYAYQMAKEFSLDVDTRDDFIHVIGHLFFDYAIREKENKVFYKEGYSRLFNREASKIILGDSKTISTSLESYHNYSQGGVTLATMLENLPNFLTANVTEAFVSIGVNDLITGYSVEEIFSNFQKLYSLLAENKIKMRLTTIAYTLFRETVNNADIEKINQWLTEFCYQNQIPLLDINRFLSKDGNLNYHLTSDGLHFTQEANDLLQSQYQLFVDEVKTLLEHHHHHH”, “not failed”; in that of “MALTATVDVELKIRHSVPQRREPTKWRRIMYAITGITGKVGGAMARALLAAGQPVRAIVRDATKGRQWAALGCDVAIATMEDAEALTQAFKGATAVFILPPPVFDPEPFYPEAQAVIDSVATALRAAKPARVVCLSTVGADAVQDNLLSQHTKMETALSALPLALTLLRPAWFLDNVAWDVSSARGAGLIHSFLAPTGRALPMVAAEDVGRVAATLIQQDWSGTRIVELEGPERVSPDDLAAAFTTVLGKPVRAVPVPRETWEALFRSQGMRNPQPRMRMLDGFNEGWIAFADEARTIKGTISATTVVQALVAGEGA”, “failed”. With “MLPPYNYMDNGTLKGISIDLLEAITEKMGKKVTREEIHLVSWTEGYQAALTRNNTVLFVTARTPEREQSFKWVGPIYSDKYVLFAKRDPGVTIDGPEDLKEYRIGVISDDLEHHHHHH”, the protein production entry is “failed”. As to “MNDTPDDTFVSGYLLYLLAASSEEASAQFHDHIRAQGLRVPEWRVLACLVDNDAMMITRLAKLSLMEQSRMTRIVDQMDARGLVTRVADAKDKRRVRVRLTDDGRALAESLVASARAHETRLLSALADTDAARIKGVLRTLLDVLDRPRESR”, the protein production entry was “not failed”.

Take “MESSPSGSEPPQKVVSKLQKVGWRATMIFNLGFAAYIFAIKREKDIDADEKKKVKKGSEARHKGVKKGAVNTEIEKKGAEETDKAKEAETAIPEKEETKLIPELDPLFEFTDATDQSMFQTVATEHVKVARKPIPEDEQKELFKWILEEKRKIEPKDRKEKKQIDEEKAILKQFIRAERIPKLLPDDSVDSSLRDWDKFFSK”: the protein production entry was “failed”. Turning to “MDLGKPMKSVLVVALLVIFQVCLCQDEVTDDYIGDNTTVDYTLFESLCSKKDVRNFKAWFLPIMYSIICFVGLLGNGLVVLTYIYFKRLKTMTDTYLLNLAVADILFLLTLPFWAYSAAKSWVFGVHFCKLIFAIYKMSFFSGMLLLLCISIDRYVAIVQAVSAHRHRARVLLISKLSCVGIWILATVLSIPELLYSDLQRSSSEQAMRCSLITEHVEAFITIQVAQMVIGFLVPLLAMSFCYLVIIRTLLQARNFERNKAIKVIIAVVVVFIVFQLPYNGVVLAQTVANFNITSSTCELSKQLNIAYDVTYSLACVRCCVNPFLYAFIGVKFRNDLFKLFKDLGCLSQEQLRQWSSCRHIRRSSMSVEAETTTTFSP”, the protein production entry is “failed”. “MEEHGHHEMEGTPLGCHSHIKLLKINREHLVTNIRNTQCLVDNLLENGYFSAEDAEIVCACPTKPDKVRKILDLVQSKGEEVSEFFLYVLQQLEDAYVDLRLWLSEIGFSPSQLIRTKTIVNTDPVSRYTQQLRHQLGRDSKFMLCYAQKEDLLLEETYMDTLMELVGFNNENLGSLGGLDCLLDHSTGVLNEHGETVFVFGDAGVGKSMLLQRLQSLWASGRLTSTAKFFFHFRCRMFSCFKESDMLSLQDLLFKHFCYPEQDPEEVFSFLLRFPHTALFTFDGLDELHSDFDLSRVPDSCCPWEPAHPLVLLANLLSGRLLKGAGKLLTARTGVEVPRQLLRKKVLLRGFSPSHLRAYARRMFPERTAQEHLLQQLDANPNLCSLCGVPLFCWIIFRCFQHFQTVFEGSSSQLPDCAVTLTDVFLLVTEVHLNRPQPSSLVQRNTRSPAETLRAGWRTLHALGEVAHRGTDKSLFVFGQEEVQASKLQEGDLQLGFLRALPDVGPEQGQSYEFFHLTLQAFFTAFFLVADDKVSTRELLRFFREWTSPGEATSSSCHSSFFSFQCLGGRSRLGPDPFRNKDHFQFTNLFLCGLLAKARQKLLRQLVPKAILRRKRKALWAHLFASLRSYLKSLPRVQSGGFNQVHAMPTFLWMLRCIYETQSQKVGRLAARGISADYLKLAFCNACSADCSALSFVLHHFHRQLALDLDNNNLNDYGVQELQPCFSRLTVIRLSVNQITDTGVKVLCEELTKYKIVTFLGLYNNQITDIGARYVAQILDECRGLKHLKLGKNRITSEGGKCVALAVKNSTSIVDVGMWGNQIGDEGAKAFAEALKDHPSLTTLSLAFNGISPEGGKSLAQALKQNTTLTVIWLTKNELNDESAECFAEMLRVNQTLRHLWLIQNRITAKGTAQLARALQKNTAITEICLNGNLIKPEEAKVFENEKRIICF”: the protein production entry is “failed”. For the sequence “MKYSTRADIQDYLKQGYQLVSDNFVTGTTFDTDDRTDQIYEVHFKHGIESDFEKRNVKETVHYRYDNGQLARPIYQNVLNFERKVETDQVTKQRNYKNWQAVDGTSFKRVVSPYIKGYTAVPKLIDEITNINENHKNIEKIVVYKANDEKAQVKYFDDTTGRKLSEQFLHGAYGSRDVYRTANTIQHYKQMGYELVSDDYPKNGAKYSQDKLVRVYEIHLKHKIIEQSEKSTVKEVIHYLYDNGHLAKPVYESVLNFSRMVGIDQVTGKKYYGIWQATEGTSFKKVVSPKIEGYTALPKVVVAINNINVNHANIEKIVVYKANDEKARVKYFDDTIGRKLSEQLLHGVYGSRDVYRTANTIQRYKQMGYELVSDNYPKNGANYSQDKLVRVYEIHLKHKIVKQPEKSTVKEVIHYLYDNGQPAGPIYENELDFKRIIEFDQVTKQKRYGNWQAIDGTYFKKVDSPKIIGYTPTLEAIETINNIDGSHKDIEETVVYKINDEKAQVTYYDDTTRKKLSEKGLNGAYRTRDSYRTVDAINQYKWAGYELVSDDYPQNGVFYDQDKLIKMYEVHLKHGEKMDFEQRAVKEVIYYQYDDGQLAEPTYKNKLSFRRIVKIDQVTGQKYYGVWQAVDGTNFRSVVSPIIEGYTPIPEIVRAINNINSYHQDVEKTVVYQANKQNEVVGGNSPKKFKQIKIILVRVIHPNREVRINTEKSHTKK”, the protein production entry was “failed”. In the case of “MVTKEQVVEALEGIVDPFLHKTLKETSAIKEVTVKPEKEHVSVKIAIVKTGTAEQMQLQSGIVKLVKELGAATVGLRFAEFTEEELAQFAPEQEEEQSESLLSPNSKTTFLAVASGKGGVGKSTVSVNLAVALARLGKKVGIIDADIYGFSVPDMMGIEKRPIVRGDKIIPVERLGVKVISMGFFVEDNAPVIWRGPMLGKMLNHFFTEVEWGDLDYLVLDLPPGTGDVALDVHSMLPSCKEIIVTTPHPTAAFVAARAGAMALRTEHSILGVVENMAYFESKVTGEKEYVFGKGGGDKLATELQTNVLGRIPLQQPDWNKEDFAPSVYEDTHTTGIIYSKIAETVIDKTAVTQKLEHHHHHH” it was “not failed”.

Take “MWAFPERFEGRHVRLEPLALAHLPAFLRHYDPEVYRFLSRAPVAPTEEALRAHLEGLLGEPGRVNWAILFGKEVAGRISVIAPEPEHAKLELGTMLFKPFWGSPANKEAKYLLLRHAFEVLRAERVQFKVDLRNERSQRALEALGAVREGVLRKNRRLPDGAFRDDVVYSVLKEEWPGVKARLEARLYGASGN”: the protein production result is listed as “not failed”. Take “MVGIRKRKDFFEDFGSELFDNLEEMIEALLEEMGDSVPFVYGFSIIHRPGEDPELREFGNVPEYPQQEENFFPSETKEPLIDIFENENMVHVLAEFPEIEKEDILLHATGQHLEIKVLGLSEYTEDVDLPVRVDPKSAKASYKNGVLEVTFRRCSEESPVEIEINLEHHHHHH”: the protein production entry is reported as “not failed”. In the case of “MTSSDLPVMLFAAGFGTRMGDLTRTRPKPLIEVAGRPLVDHTLDLARAVSPPRIVANLHYLAPLLAAHLAPQGVLLSHEQPDILDTGGGLRQALPLLAAETVFTANSDAIWSGPNPFALLAEAWEPARMDALLMCVPVGQAIGHAGHGDFSRDAQGRIERGPGLIYGGVQIVKTGGLGDFDMPAFSLNLLWNRIGAAGRLFALEYPGRWCDVGHPGGIALAEEMLRDVLEHHHHHH”, the protein production result is listed as “not failed”. With “MKPIVIKRDGSKAPFNRDRIQAAVESAAEHADQEIAIYALNVALAVELKLRDYDEVHITEIQTLVENELMQGPYKALARSYIEYRHDRDVAREKQSK”, the protein production result is recorded as “failed”.

Source of the values: a protein production outcome set (Wang et al. 2014).
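Note: failed if final PepcDB status was selected cloned or expressed and not failed if soluble or beyond.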
